Results reported in IntAct's records for PubMed 25266290.

B1: Ras-related protein Rab-5A (Homo sapiens), P20339 (parent)
chain: MASRGATRPNGPNTGNKICQFKLVLLGESAVGKSSLVLRFVKGQFHEFQESTIGAAFLTQTVCLDDTTVKFEIWDTAGQERYHSLAPMYYRGAQAAIVVYDITNEESFARAKNWVKELQRQASPNIVIALSGNKADLANKRAVDFQEAQSYADDNSLLFMETSAKTSMNVNEIFMAIAKKLPKNEPQNPGANSARGRGVDLTEPTQPTRNQCCSN
partner: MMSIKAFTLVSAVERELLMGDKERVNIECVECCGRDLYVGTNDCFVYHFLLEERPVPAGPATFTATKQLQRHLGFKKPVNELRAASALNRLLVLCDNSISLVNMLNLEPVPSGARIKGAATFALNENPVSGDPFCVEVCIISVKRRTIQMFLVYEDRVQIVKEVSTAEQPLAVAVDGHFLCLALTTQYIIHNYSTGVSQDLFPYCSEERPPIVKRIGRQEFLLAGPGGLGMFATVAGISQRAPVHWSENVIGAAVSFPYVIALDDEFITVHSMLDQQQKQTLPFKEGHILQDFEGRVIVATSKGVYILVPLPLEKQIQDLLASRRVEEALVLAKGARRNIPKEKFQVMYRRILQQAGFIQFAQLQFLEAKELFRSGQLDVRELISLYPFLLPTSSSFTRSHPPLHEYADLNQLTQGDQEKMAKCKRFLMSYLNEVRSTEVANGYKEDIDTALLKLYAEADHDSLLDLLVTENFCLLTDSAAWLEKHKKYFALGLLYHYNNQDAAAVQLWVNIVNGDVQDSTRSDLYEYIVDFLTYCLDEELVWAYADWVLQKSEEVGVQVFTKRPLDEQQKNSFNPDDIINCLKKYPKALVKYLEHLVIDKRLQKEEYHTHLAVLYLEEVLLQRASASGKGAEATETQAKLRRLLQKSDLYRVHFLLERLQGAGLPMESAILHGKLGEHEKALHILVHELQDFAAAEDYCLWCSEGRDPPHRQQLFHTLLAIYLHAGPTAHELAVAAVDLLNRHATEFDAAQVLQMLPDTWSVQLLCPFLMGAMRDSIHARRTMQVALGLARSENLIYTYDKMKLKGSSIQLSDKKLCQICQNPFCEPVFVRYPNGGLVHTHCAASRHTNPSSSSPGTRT

Variants of: B1
Settings: with tgfa1_human TGFBRAP1, Q8WUH2

Row | effect of a mutation on the interaction | Variant
1 | decreasing interaction | MASRGATRPNGPNTGNKICQFKLVLLGESAVGKNSLVLRFVKGQFHEFQESTIGAAFLTQTVCLDDTTVKFEIWDTAGQERYHSLAPMYYRGAQAAIVVYDITNEESFARAKNWVKELQRQASPNIVIALSGNKADLANKRAVDFQEAQSYADDNSLLFMETSAKTSMNVNEIFMAIAKKLPKNEPQNPGANSARGRGVDLTEPTQPTRNQCCSN [S34N]
